Measured values published in patent US20110294217, “DNA NICKING ENZYME FROM A HOMING ENDONUCLEASE THAT STIMULATES SITE-SPECIFIC GENE CONVERSION” (FRED HUTCHINSON CANCER RESEARCH CENTER, published 2011).

T1: I-AniI Y2 (in cell) (Aspergillus nidulans, UniProt P03880 P03880:235-488, F13Y,F80K,S111Y,L232K)
T1 sequence: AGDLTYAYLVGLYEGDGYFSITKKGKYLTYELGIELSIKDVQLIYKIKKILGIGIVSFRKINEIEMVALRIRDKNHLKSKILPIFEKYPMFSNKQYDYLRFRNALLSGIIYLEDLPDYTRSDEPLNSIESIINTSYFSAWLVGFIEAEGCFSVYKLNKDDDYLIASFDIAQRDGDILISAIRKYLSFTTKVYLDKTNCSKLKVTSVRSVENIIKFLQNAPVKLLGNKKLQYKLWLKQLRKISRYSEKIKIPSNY

T2: I-AniI Y2 K227M nickase (in cell) (Aspergillus nidulans, UniProt P03880 P03880:235-488, F13Y,F80K,S111Y,L232K,K227M)
T2 sequence: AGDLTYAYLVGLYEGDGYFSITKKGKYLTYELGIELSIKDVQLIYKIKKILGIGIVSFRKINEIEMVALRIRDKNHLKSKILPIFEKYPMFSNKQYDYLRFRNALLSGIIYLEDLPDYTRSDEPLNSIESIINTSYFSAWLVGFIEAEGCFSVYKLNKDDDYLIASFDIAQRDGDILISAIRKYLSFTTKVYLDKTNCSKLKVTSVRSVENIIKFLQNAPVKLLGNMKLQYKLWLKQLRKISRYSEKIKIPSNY

T3: I-AniI HyperK (in cell) (Aspergillus nidulans, UniProt P03880 P03880:235-488, F80K,L232K)
T3 sequence: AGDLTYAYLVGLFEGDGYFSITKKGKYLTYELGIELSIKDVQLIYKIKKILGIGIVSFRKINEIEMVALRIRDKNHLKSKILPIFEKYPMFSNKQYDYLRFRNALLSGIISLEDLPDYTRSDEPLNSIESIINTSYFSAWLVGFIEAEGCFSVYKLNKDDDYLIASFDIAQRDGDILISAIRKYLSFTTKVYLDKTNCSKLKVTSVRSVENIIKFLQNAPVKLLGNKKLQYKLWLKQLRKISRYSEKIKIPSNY

T4: I-AniI K227M/Q171K (catalytically inactive) (Aspergillus nidulans, UniProt P03880 P03880:235-488, F80K,L233K,Q171K,K227M)
T4 sequence: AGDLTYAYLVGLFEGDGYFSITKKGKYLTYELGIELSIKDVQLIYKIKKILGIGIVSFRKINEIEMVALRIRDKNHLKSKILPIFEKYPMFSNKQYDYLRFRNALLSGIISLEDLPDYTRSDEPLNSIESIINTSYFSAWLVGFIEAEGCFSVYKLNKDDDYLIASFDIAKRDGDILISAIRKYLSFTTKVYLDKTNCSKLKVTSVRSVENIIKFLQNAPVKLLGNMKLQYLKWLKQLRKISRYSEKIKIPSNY

T5: I-AniI K227M nickase (Aspergillus nidulans, UniProt P03880 P03880:235-488, F80K,L233K,K227M)
T5 sequence: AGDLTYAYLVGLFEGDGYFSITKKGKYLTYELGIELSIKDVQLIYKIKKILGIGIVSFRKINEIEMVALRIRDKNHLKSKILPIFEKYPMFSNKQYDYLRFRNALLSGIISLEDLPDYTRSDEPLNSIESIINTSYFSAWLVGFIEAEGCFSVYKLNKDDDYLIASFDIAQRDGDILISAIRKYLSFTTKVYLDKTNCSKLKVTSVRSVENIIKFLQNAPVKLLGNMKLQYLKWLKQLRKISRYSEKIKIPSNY


Columns and labels:
I-AniI Y2 (in cell) = target: T1, I-AniI Y2 (in cell); experiment: cell_activity; cis recombination, 293T; reporter alone 5.10; details: tags: N-terminal HA and NLS
Procedure: (§1) Cells were analyzed on an FACScan® flow cytometer (Becton Dickinson); 75,000 events were gated for linear side and forward scatter to identify cells; and GFP fluorescence was analyzed.
(§2) Reporter assays were developed to measure either intramolecular recombination in cis, or recombination of a chromosomal target mediated by a donor in trans. The assay for recombination in cis used a reporter, DR-GFPAni, based on the direct repeat recombination reporter plasmid (DR)-GFP (Pierce et al., Genes Dev. 13:2633-2638, 1999), which was designed to score only gene conversion, and not repair mediated by NHEJ or single-strand annealing. […] Transfection efficiency was consistently greater than 90%. […] The fraction of GFP⁺ cells ranged from a background of about 3 to about 5% for cells transfected with the reporter alone, up to about 50% in cells transfected simultaneously with the reporter plasmid and an I-AniI Y2 cleavase expression plasmid (FIG. 8C and FIG. 10). […] Expression of the I-AniI nickase stimulated recombination 2.5-fold (FIG. 8C), or approximately one-fourth as efficiently as the I-AniI cleavase.
(§3) ¹The two different series were performed as described in this example.

[1] = target: T2, I-AniI Y2 K227M nickase (in cell); experiment: as above; details: tags: N-terminal HA and NLS
Procedure: as §1, §2, §3

I-AniI HyperK (in cell) = target: T3, I-AniI HyperK (in cell); experiment: as above; details: tags: N-terminal HA and NLS
Procedure: as §1, §2, §3

[2] = target: T4, I-AniI K227M/Q171K (catalytically …); experiment: ITC; catalytically inactive
Procedure: (§4) Isothermal titration calorimetry (ITC) was used to determine the dissociation constants of native and nicking I-AniI binding to the optimal LIB4 DNA target site (FIG. 4E). Calorimetric experiments were conducted as described previously (Eastberg et al., Biochemistry 46:7215-25, 2007). […] This difference is primarily due to a +5.8 kcal/mol increase in enthalpy change upon nickase binding, implying that the nicking variant has lost contacts to the DNA target—presumably because a hydrogen bond formed by the K227 side chain to the DNA phosphate backbone (Scalley-Kim et al., J. Mol. Biol. 372:1305-1319, 2007) is eliminated.

I-AniI K227M nickase = target: T5, I-AniI K227M nickase; experiment: ITC; +1.4 kcal/mol in binding free energy vs wild type
Procedure: as §4

Row | Binder | activity (I-AniI Y2 (in cell)) [% GFP+] | activity [1] [% GFP+] | activity (I-AniI HyperK (in cell)) [% GFP+] | Kd [2] [nM] | Kd (I-AniI K227M nickase) [nM]
1 | I-AniI native target site (19 bp) (dsDNA) DNA 1: TTACAGAGAAACCTCCTCA DNA 2: TGAGGAGGTTTCTCTGTAA | 47.5 | 12.4 | 11 | – | –
2 | I-AniI Lib4 target site (dsDNA) DNA 1: TGAGGAGGTTACTCTGTTA DNA 2: TAACAGAGTAACCTCCTCA | – | – | – | 62 | 71
